Source: patent US20260242735A1

What was measured:
human CD33 D112A (human) = human CD33 D112A (human) (UniProt P20138); assay: alanine scan, flow cytometry, HEK293-T
human CD33 A182S (human) = human CD33 A182S (human) (UniProt P20138); assay: alanine scan, flow cytometry, HEK293-T
human CD33 Q171A (human) = human CD33 Q171A (human) (UniProt P20138); assay: alanine scan, flow cytometry, HEK293-T
human CD33 V56A (human) = human CD33 V56A (human) (UniProt P20138); assay: alanine scan, flow cytometry, HEK293-T
human CD33 H57A (human) = human CD33 H57A (human) (UniProt P20138); assay: alanine scan, flow cytometry, HEK293-T
human CD33 R111A (human) = human CD33 R111A (human) (UniProt P20138); assay: alanine scan, flow cytometry, HEK293-T
human CD33 F117A (human) = human CD33 F117A (human) (UniProt P20138); assay: alanine scan, flow cytometry, HEK293-T
human CD33 A183S (human) = human CD33 A183S (human) (UniProt P20138); assay: alanine scan, flow cytometry, HEK293-T
human CD33 G156A (human) = human CD33 G156A (human) (UniProt P20138); assay: alanine scan, flow cytometry, HEK293-T
human CD33 T173A (human) = human CD33 T173A (human) (UniProt P20138); assay: alanine scan, flow cytometry, HEK293-T
human CD33 R110A (human) = human CD33 R110A (human) (UniProt P20138); assay: alanine scan, flow cytometry, HEK293-T
human CD33 R110A (human), sequence (P20138 18-364 R110A limits assumed): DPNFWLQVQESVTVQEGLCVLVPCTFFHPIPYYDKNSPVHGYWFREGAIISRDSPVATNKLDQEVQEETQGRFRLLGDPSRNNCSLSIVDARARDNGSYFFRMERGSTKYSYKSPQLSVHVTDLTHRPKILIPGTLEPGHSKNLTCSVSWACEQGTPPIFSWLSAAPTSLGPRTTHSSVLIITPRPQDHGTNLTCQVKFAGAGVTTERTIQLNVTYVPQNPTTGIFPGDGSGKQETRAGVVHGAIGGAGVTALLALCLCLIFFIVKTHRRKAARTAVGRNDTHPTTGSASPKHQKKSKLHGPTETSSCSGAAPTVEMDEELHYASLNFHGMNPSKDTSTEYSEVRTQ

human CD33 A74S (human) = human CD33 A74S (human) (UniProt P20138); assay: alanine scan, flow cytometry, HEK293-T
human CD33 A74S (human), sequence (P20138 18-364 A74S limits assumed): as the sequence (P20138 18-364 R110A limits assumed) above, with A57S, A93R counted along it

human CD33 L141A (human) = human CD33 L141A (human) (UniProt P20138); assay: alanine scan, flow cytometry, HEK293-T
human CD33 L141A (human), sequence (P20138 18-364 L141A limits assumed): as the sequence (P20138 18-364 R110A limits assumed) above, with A93R, L124A counted along it

human CD33 W179A (human) = human CD33 W179A (human) (UniProt P20138); assay: alanine scan, flow cytometry, HEK293-T
human CD33 K159A (human) = human CD33 K159A (human) (UniProt P20138); assay: alanine scan, flow cytometry, HEK293-T
human CD33 K130A (human) = human CD33 K130A (human) (UniProt P20138); assay: alanine scan, flow cytometry, HEK293-T
human CD33 N76A (human) = human CD33 N76A (human) (UniProt P20138); assay: alanine scan, flow cytometry, HEK293-T
human CD33 V106A (human) = human CD33 V106A (human) (UniProt P20138); assay: alanine scan, flow cytometry, HEK293-T
human CD33 S178A (human) = human CD33 S178A (human) (UniProt P20138); assay: alanine scan, flow cytometry, HEK293-T
human CD33 S178A (human), sequence (P20138 18-364 S178A limits assumed): as the sequence (P20138 18-364 R110A limits assumed) above, with A93R, S161A counted along it

human CD33 Q133A (human) = human CD33 Q133A (human) (UniProt P20138); assay: alanine scan, flow cytometry, HEK293-T
human CD33 L134A (human) = human CD33 L134A (human) (UniProt P20138); assay: alanine scan, flow cytometry, HEK293-T
human CD33 G123A (human) = human CD33 G123A (human) (UniProt P20138); assay: alanine scan, flow cytometry, HEK293-T
human CD33 S71A (human) = human CD33 S71A (human) (UniProt P20138); assay: alanine scan, flow cytometry, HEK293-T
human CD33 S71A (human), sequence (P20138 18-364 S71A limits assumed): as the sequence (P20138 18-364 R110A limits assumed) above, with S54A, A93R counted along it

human CD33 Y116A (human) = human CD33 Y116A (human) (UniProt P20138); assay: alanine scan, flow cytometry, HEK293-T
human CD33 S186A (human) = human CD33 S186A (human) (UniProt P20138); assay: alanine scan, flow cytometry, HEK293-T
human CD33 S54A (human) = human CD33 S54A (human) (UniProt P20138); assay: alanine scan, flow cytometry, HEK293-T
human CD33 L161A (human) = human CD33 L161A (human) (UniProt P20138); assay: alanine scan, flow cytometry, HEK293-T
human CD33 L161A (human), sequence (P20138 18-364 L161A limits assumed): as the sequence (P20138 18-364 R110A limits assumed) above, with A93R, L144A counted along it

human CD33 W60A (human) = human CD33 W60A (human) (UniProt P20138); assay: alanine scan, flow cytometry, HEK293-T
human CD33 S131A (human) = human CD33 S131A (human) (UniProt P20138); assay: alanine scan, flow cytometry, HEK293-T
human CD33 S131A (human), sequence (P20138 18-364 S131A limits assumed): as the sequence (P20138 18-364 R110A limits assumed) above, with A93R, S114A counted along it

human CD33 R69A (human) = human CD33 R69A (human) (UniProt P20138); assay: alanine scan, flow cytometry, HEK293-T
human CD33 E85A (human) = human CD33 E85A (human) (UniProt P20138); assay: alanine scan, flow cytometry, HEK293-T
human CD33 S181A (human) = human CD33 S181A (human) (UniProt P20138); assay: alanine scan, flow cytometry, HEK293-T
human CD33 C163A (human) = human CD33 C163A (human) (UniProt P20138); assay: alanine scan, flow cytometry, HEK293-T
human CD33 L148A (human) = human CD33 L148A (human) (UniProt P20138); assay: alanine scan, flow cytometry, HEK293-T
human CD33 L148A (human), sequence (P20138 18-364 L148A limits assumed): as the sequence (P20138 18-364 R110A limits assumed) above, with A93R, L131A counted along it

human CD33 L93A (human) = human CD33 L93A (human) (UniProt P20138); assay: alanine scan, flow cytometry, HEK293-T
human CD33 P55A (human) = human CD33 P55A (human) (UniProt P20138); assay: alanine scan, flow cytometry, HEK293-T
human CD33 P55A (human), sequence (P20138 18-364 P55A limits assumed): as the sequence (P20138 18-364 R110A limits assumed) above, with P38A, A93R counted along it

human CD33 F177A (human) = human CD33 F177A (human) (UniProt P20138); assay: alanine scan, flow cytometry, HEK293-T
human CD33 R89A (human) = human CD33 R89A (human) (UniProt P20138); assay: alanine scan, flow cytometry, HEK293-T
human CD33 R91A (human) = human CD33 R91A (human) (UniProt P20138); assay: alanine scan, flow cytometry, HEK293-T
human CD33 P150A (human) = human CD33 P150A (human) (UniProt P20138); assay: alanine scan, flow cytometry, HEK293-T
human CD33 P150A (human), sequence (P20138 18-364 P150A limits assumed): as the sequence (P20138 18-364 R110A limits assumed) above, with A93R, P133A counted along it

human CD33 I176A (human) = human CD33 I176A (human) (UniProt P20138); assay: alanine scan, flow cytometry, HEK293-T
human CD33 I176A (human), sequence (P20138 18-364 I176A limits assumed): as the sequence (P20138 18-364 R110A limits assumed) above, with A93R, I159A counted along it

human CD33 V165A (human) = human CD33 V165A (human) (UniProt P20138); assay: alanine scan, flow cytometry, HEK293-T
human CD33 V165A (human), sequence (P20138 18-364 V165A limits assumed): as the sequence (P20138 18-364 R110A limits assumed) above, with A93R, V148A counted along it

human CD33 T152A (human) = human CD33 T152A (human) (UniProt P20138); assay: alanine scan, flow cytometry, HEK293-T
human CD33 E63A (human) = human CD33 E63A (human) (UniProt P20138); assay: alanine scan, flow cytometry, HEK293-T
human CD33 E63A (human), sequence (P20138 18-364 E63A limits assumed): as the sequence (P20138 18-364 R110A limits assumed) above, with E46A, A93R counted along it

[1] = biological target: human wild-type CD33 (human) (UniProt P20138); assay: flow cytometry, IgG at 0.25 ug/ml on HEK293-T cells expressing CD33 against vector alone
human wild-type CD33 (human), sequence (P20138 18-364 limits assumed): as the sequence (P20138 18-364 R110A limits assumed) above, with A93R counted along it

**Q.** With Refmab #7 (WM53) (antibody) as the substance, how does the Mean % WT Binding (human CD33 D112A (human)) read?
**A.** 47.9 % WT binding

**Q.** And the Mean % WT Binding (human CD33 A182S (human))?
**A.** 114 % WT binding

**Q.** What about the Mean % WT Binding (human CD33 Q171A (human)) of the same substance?
**A.** 121 % WT binding

**Q.** What about the Mean % WT Binding (human CD33 V56A (human)) of the same substance?
**A.** 117 % WT binding

**Q.** What about the Mean % WT Binding (human CD33 H57A (human)) of the same substance?
**A.** 112 % WT binding

**Q.** What about the Mean % WT Binding (human CD33 R111A (human)) of the same substance?
**A.** 94 % WT binding

**Q.** And the Mean % WT Binding (human CD33 F117A (human))?
**A.** 132 % WT binding

**Q.** What about the Mean % WT Binding (human CD33 A183S (human)) of the same substance?
**A.** 102 % WT binding

**Q.** What about the Mean % WT Binding (human CD33 G156A (human)) of the same substance?
**A.** 112 % WT binding

**Q.** What about the Mean % WT Binding (human CD33 T173A (human)) of the same substance?
**A.** 103 % WT binding

**Q.** What about the Mean % WT Binding (human CD33 R110A (human)) of the same substance?
**A.** 95.9 % WT binding

**Q.** What about the Mean % WT Binding (human CD33 A74S (human)) of the same substance?
**A.** 118 % WT binding

**Q.** What about the Mean % WT Binding (human CD33 L141A (human)) of the same substance?
**A.** 118 % WT binding

**Q.** What about the Mean % WT Binding (human CD33 W179A (human)) of the same substance?
**A.** 111 % WT binding

**Q.** What about the Mean % WT Binding (human CD33 K159A (human)) of the same substance?
**A.** 110 % WT binding

**Q.** And the Mean % WT Binding (human CD33 K130A (human))?
**A.** 148 % WT binding

**Q.** What about the Mean % WT Binding (human CD33 N76A (human)) of the same substance?
**A.** 93.9 % WT binding

**Q.** And the Mean % WT Binding (human CD33 V106A (human))?
**A.** 126 % WT binding

**Q.** And the Mean % WT Binding (human CD33 S178A (human))?
**A.** 106 % WT binding

**Q.** What about the Mean % WT Binding (human CD33 Q133A (human)) of the same substance?
**A.** 100 % WT binding

**Q.** And the Mean % WT Binding (human CD33 L134A (human))?
**A.** 96.6 % WT binding

**Q.** What about the Mean % WT Binding (human CD33 G123A (human)) of the same substance?
**A.** 76 % WT binding

**Q.** What about the Mean % WT Binding (human CD33 S71A (human)) of the same substance?
**A.** 104 % WT binding

**Q.** And the Mean % WT Binding (human CD33 Y116A (human))?
**A.** 1.7 % WT binding

**Q.** What about the Mean % WT Binding (human CD33 S186A (human)) of the same substance?
**A.** 93.4 % WT binding

**Q.** What about the Mean % WT Binding (human CD33 S54A (human)) of the same substance?
**A.** 100 % WT binding

**Q.** And the Mean % WT Binding (human CD33 L161A (human))?
**A.** 120 % WT binding

**Q.** What about the Mean % WT Binding (human CD33 W60A (human)) of the same substance?
**A.** 2.1 % WT binding

**Q.** And the Mean % WT Binding (human CD33 S131A (human))?
**A.** 114 % WT binding

**Q.** And the Mean % WT Binding (human CD33 R69A (human))?
**A.** 146 % WT binding

**Q.** And the Mean % WT Binding (human CD33 E85A (human))?
**A.** 126 % WT binding

**Q.** What about the Mean % WT Binding (human CD33 S181A (human)) of the same substance?
**A.** 86.7 % WT binding

**Q.** And the Mean % WT Binding (human CD33 C163A (human))?
**A.** 102 % WT binding

**Q.** And the Mean % WT Binding (human CD33 L148A (human))?
**A.** 96.7 % WT binding

**Q.** And the Mean % WT Binding (human CD33 L93A (human))?
**A.** 102 % WT binding

**Q.** What about the Mean % WT Binding (human CD33 P55A (human)) of the same substance?
**A.** 94.7 % WT binding

**Q.** And the Mean % WT Binding (human CD33 F177A (human))?
**A.** 74.1 % WT binding

**Q.** What about the Mean % WT Binding (human CD33 R89A (human)) of the same substance?
**A.** 94 % WT binding

**Q.** And the Mean % WT Binding (human CD33 R91A (human))?
**A.** 114 % WT binding

**Q.** And the Mean % WT Binding (human CD33 P150A (human))?
**A.** 115 % WT binding

**Q.** And the Mean % WT Binding (human CD33 I176A (human))?
**A.** 103 % WT binding

**Q.** And the Mean % WT Binding (human CD33 V165A (human))?
**A.** 118 % WT binding

**Q.** And the Mean % WT Binding (human CD33 T152A (human))?
**A.** 102 % WT binding

**Q.** What about the Mean % WT Binding (human CD33 E63A (human)) of the same substance?
**A.** 93 % WT binding

**Q.** And the Signal:Background (signal:background ratio) [1]?
**A.** 32
